Data published in patent publication US5442053A, “Salts and mixtures of hyaluronic acid with pharmaceutically active substances, pharmaceutical compositions containing the same and methods for administration of such compositions” (Fidia, S.p.A., priority 1983, dated 1995).

Test system: corneal epithelium
Assay: Healing activity of EGF vehicled in hyaluronic acid, epithelial lesion of rabbit cornea
Type: in vivo, rabbit (male albino New Zealand)
Details: for healing of lesions in the corneal epithelium: single eye
Method: The experiments were carried out on male albino New Zealand rabbits (average weight 1.8 kg). The animals, after a period of adaptation of about 5 days, underwent epithelial lesion of the cornea in suitable conditions of local anesthetic with Novesina (4%). The lesion consisted of a monocular scarification of a circular area in the optic zone effected by a concave glass cylinder (.phi. 3mm) with a sharp edge.
The animals were subdivided into groups, each group consisting of 5 animals, and subjected to pharmacological treatment by conjunctival instillation as follows:
Treatment was effected on the right eye (RE) by conjunctival instillation of 2 drops every 8 hours for 3 total administrations.
Healing of the corneal epithelium was evaluated by observation of the eye and photographic documentation with a slit lamp at various intervals after scarification: 0, 8 hours, 16 hours, 24 hours, 32 hours, 40 hours, and 48 hours.

B1: Epidermal growth factor (protein, UniProt P01133 23-1207, looked up)
Pro-epidermal growth factor: PQHWSCPEGTLAGNGNSTCVGPAPFLIFSHGNSIFRIDTEGTNYEQLVVDAGVSVIMDFHYNEKRIYWVDLERQLLQRVFLNGSRQERVCNIEKNVSGMAINWINEEVIWSNQQEGIITVTDMKGNNSHILLSALKYPANVAVDPVERFIFWSSEVAGSLYRADLDGVGVKALLETSEKITAVSLDVLDKRLFWIQYNREGSNSLICSCDYDGGSVHISKHPTQHNLFAMSLFGDRIFYSTWKMKTIWIANKHTGKDMVRINLHSSFVPLGELKVVHPLAQPKAEDDTWEPEQKLCKLRKGNCSSTVCGQDLQSHLCMCAEGYALSRDRKYCEDVNECAFWNHGCTLGCKNTPGSYYCTCPVGFVLLPDGKRCHQLVSCPRNVSECSHDCVLTSEGPLCFCPEGSVLERDGKTCSGCSSPDNGGCSQLCVPLSPVSWECDCFPGYDLQLDEKSCAASGPQPFLLFANSQDIRHMHFDGTDYGTLLSQQMGMVYALDHDPVENKIYFAHTALKWIERANMDGSQRERLIEEGVDVPEGLAVDWIGRRFYWTDRGKSLIGRSDLNGKRSKIITKENISQPRGIAVHPMAKRLFWTDTGINPRIESSSLQGLGRLVIASSDLIWPSGITIDFLTDKLYWCDAKQSVIEMANLDGSKRRRLTQNDVGHPFAVAVFEDYVWFSDWAMPSVMRVNKRTGKDRVRLQGSMLKPSSLVVVHPLAKPGADPCLYQNGGCEHICKKRLGTAWCSCREGFMKASDGKTCLALDGHQLLAGGEVDLKNQVTPLDILSKTRVSEDNITESQHMLVAEIMVSDQDDCAPVGCSMYARCISEGEDATCQCLKGFAGDGKLCSDIDECEMGVPVCPPASSKCINTEGGYVCRCSEGYQGDGIHCLDIDECQLGEHSCGENASCTNTEGGYTCMCAGRLSEPGLICPDSTPPPHLREDDHHYSVRNSDSECPLSHDGYCLHDGVCMYIEALDKYACNCVVGYIGERCQYRDLKWWELRHAGHGQQQKVIVVAVCVVVLVMLLLLSLWGAHYYRTQKLLSKNPKNPYEESSRDVRSRRPADTEDGMSSCPQPWFVVIKEHQDLKNGGQPVAGEDGQAADGSMQPTSWRQEPQLCGMGTEQGCWIPVSSDKGSCPQVMERSFHMPSYGTQTLEGGVEKPHSLLSANPLWQQRALDPPHQMELTQ
modifications: Pro-epidermal growth factor
notes: EGF (Epidermal growth factor), dissolved in saline (0.5 mg/5 ml)
healing of lesions in the corneal epithelium (0 hours after scarification): +
healing of lesions in the corneal epithelium (8 hours after scarification): +
healing of lesions in the corneal epithelium (16 hours after scarification): +
animals healed (24 hours after scarification): 4/5
healing of lesions in the corneal epithelium (24 hours after scarification): - and +
healing of lesions in the corneal epithelium (48 hours after scarification): -
